# Results reported in the supplement of paper PMC9233669.
# Fewer inactive variants are shown than the library holds.
# Columns and labels:
# biotinyl-Trp-oxazolone = experiment: self-aminoacylation, catalytic enhancement (BWO) (fold over background); higher = more active; k-Seq, kA / k0A0; sequences stand for … in GGGAAUGGAUCCACAUCUACGAAUUC…UUCACUGCAGACUUGACGAAGCUG
# Procedure, shortened: (§1)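 Mutagenized RNA pools (0.43 μM; 21-nt variable region) were treated with 2–1250 μM of each biotinyl-aminoacyl-oxazolone. Conditions were 50 μL HEPES/NaCl/KCl/MgCl2/CaCl2 buffer, 5% acetonitrile, pH 6.9–7.0, room temperature, 90 minutes. Catalytic enhancement, the median kA relative to the uncatalyzed rate, was derived from streptavidin capture, qPCR and Illumina sequencing.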
# biotinyl-Leu-oxazolone = experiment: self-aminoacylation, catalytic enhancement (BLO) (fold over background); higher = more active; k-Seq, kA / k0A0; sequences stand for … in GGGAAUGGAUCCACAUCUACGAAUUC…UUCACUGCAGACUUGACGAAGCUG
# Procedure, shortened: as §1
# biotinyl-Ile-oxazolone = experiment: self-aminoacylation, catalytic enhancement (BIO) (fold over background); higher = more active; k-Seq, kA / k0A0; sequences stand for … in GGGAAUGGAUCCACAUCUACGAAUUC…UUCACUGCAGACUUGACGAAGCUG
# Procedure, shortened: as §1
# biotinyl-Met-oxazolone = experiment: self-aminoacylation, catalytic enhancement (BMO) (fold over background); higher = more active; k-Seq, kA / k0A0; sequences stand for … in GGGAAUGGAUCCACAUCUACGAAUUC…UUCACUGCAGACUUGACGAAGCUG
# Procedure, shortened: as §1
# biotinyl-Val-oxazolone = experiment: self-aminoacylation, catalytic enhancement (BVO) (fold over background); higher = more active; k-Seq, kA / k0A0; sequences stand for … in GGGAAUGGAUCCACAUCUACGAAUUC…UUCACUGCAGACUUGACGAAGCUG
# Procedure, shortened: as §1
# biotinyl-Phe-oxazolone = experiment: self-aminoacylation, catalytic enhancement (BFO) (fold over background); higher = more active; k-Seq, kA / k0A0; sequences stand for … in GGGAAUGGAUCCACAUCUACGAAUUC…UUCACUGCAGACUUGACGAAGCUG
# Procedure, shortened: as §1
Sequence,self-aminoacylation (biotinyl-Trp-oxazolone),self-aminoacylation (biotinyl-Leu-oxazolone),self-aminoacylation (biotinyl-Ile-oxazolone),self-aminoacylation (biotinyl-Met-oxazolone),self-aminoacylation (biotinyl-Val-oxazolone),self-aminoacylation (biotinyl-Phe-oxazolone)
AACUUUGGUAAUAGUCGCAAG [Fam3.1 aminoacylation ribozyme variant],2.24,3.08,2.58,2.22,2.15,3.84
AAGUUUGCUAAUAGGCGCACG [Fam3.1 aminoacylation ribozyme variant],0.485,0.865,0.981,0.568,0.833,2.42
AUUCUCCUAGGUCAUCCGGUG [Fam2.2 aminoacylation ribozyme variant],9.8,12.2,6.71,9.16,6.42,65.5
CCACACUUCAAGCAAUCGACC [Fam1B.1 aminoacylation ribozyme variant],0.447,0.399,0.623,0.518,0.751,1.25
CUACUUCAAACAAUAGGUCGG [Fam1A.1 aminoacylation ribozyme variant],0.676,0.754,0.792,0.643,0.693,0.7
CUACUUCAAACGCUCGGUCUG [Fam1A.1 aminoacylation ribozyme variant],0.637,1.09,0.741,0.592,0.828,0.793
CUACUUCAAACUAUCGGUCUU [Fam1A.1 aminoacylation ribozyme variant],0.796,0.822,1.03,0.833,0.968,0.957
AUUCACCUAGGUCCUCGAGUG [Fam2.2 aminoacylation ribozyme variant],1.18,2.12,1.26,1.36,1.38,3.5
CCACACUUUAAGCGAUCGGUC [Fam1B.1 aminoacylation ribozyme variant],1.03,1.25,1.13,1.16,1.11,0.891
AUUACACAGGUCAUCGAGUGA [Fam2.1 aminoacylation ribozyme variant],5.05,3.37,2.5,3.66,2.44,8.1
AAGUUUACUAAUAGUCACAAG [Fam3.1 aminoacylation ribozyme variant],1.39,1.33,1.74,1.33,1.44,2.55
AGGCACCUAGGUCAUCGGGUG [Fam2.2 aminoacylation ribozyme variant],4.1,3.18,2.94,3.14,3.73,17
AGGUUUGCUAAUAGUCGCAAC [Fam3.1 aminoacylation ribozyme variant],1.43,1.13,1.26,1.15,1.05,1.52
CUACUUCAAAGAAUUGGUCUG [Fam1A.1 aminoacylation ribozyme variant],0.806,1.08,1.18,0.954,0.912,0.605
AAGUUUGCUAUUAGUUGCAAG [Fam3.1 aminoacylation ribozyme variant],1.01,0.96,0.855,0.859,0.874,1.46
AUUACCCUGGGCAUGGAGUGA [Fam2.1 aminoacylation ribozyme variant],8.01,8.39,3.35,7.29,3.13,40.7
AUUACCCUGUUCAUCGAGUGA [Fam2.1 aminoacylation ribozyme variant],7.34,5.44,2.97,5.57,3.22,16.6
AUUCACCUAGGUAAUCGGGUU [Fam2.2 aminoacylation ribozyme variant],0.977,1.17,0.997,1.09,1.16,0.331
ACACACUACAAGCAAUCGGUC [Fam1B.1 aminoacylation ribozyme variant],1.02,0.855,1.2,0.815,1.24,1.65
AUUACCCCGGUCAUCGCGUGA [Fam2.1 aminoacylation ribozyme variant],23.8,24.3,11.2,23.7,11.8,174
CCACACUUCACGCAAUCUGUC [Fam1B.1 aminoacylation ribozyme variant],0.464,0.447,0.481,0.472,0.678,0.436

Sequence,self-aminoacylation (biotinyl-Trp-oxazolone),self-aminoacylation (biotinyl-Leu-oxazolone),self-aminoacylation (biotinyl-Ile-oxazolone),self-aminoacylation (biotinyl-Met-oxazolone),self-aminoacylation (biotinyl-Val-oxazolone),self-aminoacylation (biotinyl-Phe-oxazolone)
AUUCACCUAGGCCAUCGGGCG [Fam2.2 aminoacylation ribozyme variant],5.38,3.11,2.65,3.01,3.17,15.5
AAGCACCUAGGUCAUCGGGUG [Fam2.2 aminoacylation ribozyme variant],4.45,2.66,2.84,3.13,2.91,23.6
GUUACCCUGGUCAUCGAGUGG [Fam2.1 aminoacylation ribozyme variant],50,58.4,15,57.2,17.4,402
AGUACCCUGGUGAUCGAGUGA [Fam2.1 aminoacylation ribozyme variant],5.32,5.58,2.76,5.62,2.92,30.2
CCACACGUCAAGCAAUCUGUC [Fam1B.1 aminoacylation ribozyme variant],0.24,0.422,0.54,0.472,0.543,0.326
CCACACUUUAAGCAAUAGGUC [Fam1B.1 aminoacylation ribozyme variant],0.444,0.578,0.619,0.592,0.683,1.07
ACUACCCUGGUCAUCGAGUUA [Fam2.1 aminoacylation ribozyme variant],3.55,5.11,2.05,5.07,2.38,8.46
AAGUAUGCUAAUCGUCGCAAG [Fam3.1 aminoacylation ribozyme variant],1.76,1.37,1.81,1.71,1.56,2.35
AAUACCCUGGUCAACGAGUGA [Fam2.1 aminoacylation ribozyme variant],5.89,4.32,2.88,4.19,2.53,11.1
AAUUUUGCUAAUAGUCGCAAA [Fam3.1 aminoacylation ribozyme variant],2.42,2.22,3,3.1,2.15,2.06
AGACACUUCAAGCAAUCGGUC [Fam1B.1 aminoacylation ribozyme variant],16,3.25,2.8,2.62,2.64,19
AUUAGCCUGGUCAUCGAGGGA [Fam2.1 aminoacylation ribozyme variant],3.19,2.52,2.08,1.49,2.4,2.28
CCACACUUCUAGCAAUCGGGC [Fam1B.1 aminoacylation ribozyme variant],1.7,1.21,2.09,1.08,1.64,4.87
AUUCACCUAGGUAAUCGGAUG [Fam2.2 aminoacylation ribozyme variant],0.594,0.546,0.61,0.585,0.524,0.527
CCUCACUUCAAGCAAUCUGUC [Fam1B.1 aminoacylation ribozyme variant],0.563,0.313,0.458,0.343,0.515,1.03
AUUACCAUGGUCAUAGAGUGA [Fam2.1 aminoacylation ribozyme variant],10,8.72,4.13,8.44,3.51,37.6
AAGUUUGCUAAAAGUCGCAAA [Fam3.1 aminoacylation ribozyme variant],1.32,1.67,1.7,1.87,1.59,1.91
AAGUGUUCUAAUAGUCGCAAG [Fam3.1 aminoacylation ribozyme variant],1.54,1.64,1.6,1.7,1.32,2.39
ACUACCCUGGUCAUCGACUGA [Fam2.1 aminoacylation ribozyme variant],0.51,0.769,0.918,1.09,0.854,3.44
UUUCACCUAGGUCAUCGUGUG [Fam2.2 aminoacylation ribozyme variant],1.34,1.19,1.19,1.43,1.27,4.69
AUUUCCCUAGGUCAUCGGGUG [Fam2.2 aminoacylation ribozyme variant],9.73,13.5,6.29,10.3,6.97,70.4
